Laboratory results as given in patent publication US20090136507A1 (published 2009).

What was measured:
Experiment in all cases: yeast two-hybrid screens, LRP5 cytoplasmic domain bait against brain, HeLa and TE85 prey cDNA libraries
[1] = biological target: T1, Axin (AXIN) (Homo sapiens (Human), UniProt O15169 1-862, limits assumed)
T1 construct: Yeast two-hybrid prey
From the text: (§1) In order to identify cytoplasmic Zmax1 (LRP5) signaling pathways, the cytoplasmic domain of Zmax1 (LRP5) was subcloned into two bait vectors. The first vector was pDBleu, which was used to screen a brain, and Hela prey cDNA library cloned into the vector pPC86 (Clontech). The second bait vector used was pDBtrp, which was used to screen a cDNA prey library derived from the TE85 osteosarcoma cell line in vector pOP46. Another suitable vector which is widely available, is p86 (Gibco, Iest™ System). Standard techniques known to those skilled in the art were used as described in Fields and Song, 1989 Nature 340: 245-246; U.S. Pat. No. 5,283,173 by Fields and Song; Johnston, 1987 Microbiol. Rev. 51: 458-476; Keegan et al., 1986 Science 231: 699-704; Durfee et al., 1993 Genes Dev. 7: 555-569; Chien et al., 1991 Proc. Natl. Acad. Sci. USA 88: 9578-9582; Fields et al., 1994 Trends in Genetics 10: 286-292; and Gyuris et al., 1993 Cell 75: 791-803. The bait construct and prey cDNA libraries were transformed into yeast using standard procedures.
(§2) The frozen prey library was thawed, and the yeast cells reactivated by growing them in 150 ml YEPD medium with 2% glucose for 2 hrs at 30° C. A filter unit was sterilized with 70% ethanol and washed with sterile water to remove the ethanol. The cell densities of both bait and prey cultures were measured by determining the OD at 600 nm. An appropriate volume of yeast cells that corresponded to a cell number of 1 ml of OD 600=4 of each yeast strain, bait and prey (library) was placed in a 50 ml Falcon tube. The mixture was then filtered through the sterilized filter unit. The filter was then transferred onto a prewarmed YEPD agar plate with the cell side up, removing all air bubbles underneath the filter. Plates were then incubated at 30° C. for 6 hrs. One filter was transferred into a 50 ml Falcon tube, and 10 ml of SD with 2% Glucose was added; cells were resuspended by vortexing for 10 sec. […]

[2] = biological target: T2, Zyxin (ZYX) (Homo sapiens (Human), UniProt Q15942 2-572, limits assumed)
T2 construct: Yeast two-hybrid prey
T2 sequence: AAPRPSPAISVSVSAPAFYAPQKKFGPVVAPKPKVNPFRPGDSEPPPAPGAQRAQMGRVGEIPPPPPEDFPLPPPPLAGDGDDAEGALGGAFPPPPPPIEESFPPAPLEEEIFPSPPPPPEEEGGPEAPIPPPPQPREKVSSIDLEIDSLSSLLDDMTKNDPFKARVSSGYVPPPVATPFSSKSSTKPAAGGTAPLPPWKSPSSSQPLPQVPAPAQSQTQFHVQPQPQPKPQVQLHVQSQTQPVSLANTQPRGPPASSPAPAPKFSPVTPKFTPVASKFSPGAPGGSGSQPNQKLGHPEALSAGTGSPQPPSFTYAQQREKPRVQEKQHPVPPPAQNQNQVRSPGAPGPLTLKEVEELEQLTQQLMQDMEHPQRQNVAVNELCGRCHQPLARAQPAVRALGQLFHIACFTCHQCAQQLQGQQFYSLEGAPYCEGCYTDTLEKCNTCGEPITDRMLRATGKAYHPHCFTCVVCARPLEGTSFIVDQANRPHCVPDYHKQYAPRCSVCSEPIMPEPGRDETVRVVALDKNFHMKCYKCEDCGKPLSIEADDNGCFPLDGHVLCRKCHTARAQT
From the text: as §1, §2

[3] = biological target: T3, alpha-actinin (ACTN1) (Homo sapiens (Human), UniProt P12814 1-892, limits assumed)
T3 construct: Yeast two-hybrid prey; also called α-actinin
T3 sequence (P12814 whole entry): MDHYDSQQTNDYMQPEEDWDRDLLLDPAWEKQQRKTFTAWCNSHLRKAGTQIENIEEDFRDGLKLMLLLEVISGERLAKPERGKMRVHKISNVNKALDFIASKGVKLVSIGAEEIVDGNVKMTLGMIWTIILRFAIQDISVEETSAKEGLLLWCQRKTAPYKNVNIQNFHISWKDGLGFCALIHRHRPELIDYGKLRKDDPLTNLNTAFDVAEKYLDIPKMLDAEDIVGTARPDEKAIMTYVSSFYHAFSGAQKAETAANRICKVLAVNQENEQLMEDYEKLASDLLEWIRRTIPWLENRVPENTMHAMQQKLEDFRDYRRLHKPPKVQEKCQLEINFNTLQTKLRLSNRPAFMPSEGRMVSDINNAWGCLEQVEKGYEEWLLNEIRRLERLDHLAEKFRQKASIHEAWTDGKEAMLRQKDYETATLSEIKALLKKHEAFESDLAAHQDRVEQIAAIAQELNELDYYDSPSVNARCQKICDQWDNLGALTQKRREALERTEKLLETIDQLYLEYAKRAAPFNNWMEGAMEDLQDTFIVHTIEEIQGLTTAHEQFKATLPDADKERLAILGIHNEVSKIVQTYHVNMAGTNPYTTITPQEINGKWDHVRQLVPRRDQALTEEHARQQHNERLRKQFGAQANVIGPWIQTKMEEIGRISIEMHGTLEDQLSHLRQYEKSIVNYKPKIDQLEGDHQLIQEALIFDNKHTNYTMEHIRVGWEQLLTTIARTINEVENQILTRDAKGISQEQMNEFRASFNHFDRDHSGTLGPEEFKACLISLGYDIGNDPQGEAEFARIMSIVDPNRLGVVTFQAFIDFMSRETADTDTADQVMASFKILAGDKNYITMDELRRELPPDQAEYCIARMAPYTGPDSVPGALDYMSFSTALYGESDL
From the text: as §1, §2

T1 sequence (O15169 other isoform, or with tags, fused parts or gaps limits assumed): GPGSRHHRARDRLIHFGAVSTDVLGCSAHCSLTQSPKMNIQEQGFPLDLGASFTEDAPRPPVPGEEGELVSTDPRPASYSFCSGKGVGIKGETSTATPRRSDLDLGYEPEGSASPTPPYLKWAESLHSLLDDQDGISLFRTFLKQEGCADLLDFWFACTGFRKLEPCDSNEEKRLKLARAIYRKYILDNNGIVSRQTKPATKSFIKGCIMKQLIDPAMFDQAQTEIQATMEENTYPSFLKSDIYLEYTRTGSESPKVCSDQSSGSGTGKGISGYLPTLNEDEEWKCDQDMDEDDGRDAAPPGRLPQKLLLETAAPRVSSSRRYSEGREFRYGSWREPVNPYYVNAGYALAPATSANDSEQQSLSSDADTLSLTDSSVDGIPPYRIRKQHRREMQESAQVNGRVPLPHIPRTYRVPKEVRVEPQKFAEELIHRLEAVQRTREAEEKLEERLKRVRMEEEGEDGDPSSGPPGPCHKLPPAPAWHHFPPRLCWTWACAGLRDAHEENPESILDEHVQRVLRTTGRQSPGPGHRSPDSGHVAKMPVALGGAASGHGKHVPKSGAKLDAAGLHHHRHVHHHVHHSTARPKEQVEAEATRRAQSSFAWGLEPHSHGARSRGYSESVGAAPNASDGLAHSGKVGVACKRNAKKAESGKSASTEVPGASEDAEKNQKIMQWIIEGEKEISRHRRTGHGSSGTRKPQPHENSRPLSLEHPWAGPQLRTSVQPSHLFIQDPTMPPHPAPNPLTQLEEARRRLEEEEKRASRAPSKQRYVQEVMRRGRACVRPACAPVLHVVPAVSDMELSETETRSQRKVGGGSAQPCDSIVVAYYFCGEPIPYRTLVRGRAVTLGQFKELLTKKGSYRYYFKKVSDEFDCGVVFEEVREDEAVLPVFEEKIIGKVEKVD

binding result [1]: binds
binding result [2]: binds
binding result [3]: binds
B1: Zmax1 (LRP5) cytoplasmic domain bait (entire cytoplasmic domain and a portion of the transmembrane domain) (receptor)
chain: RVVCQRYAGANGPFPHEYVSGTPHVPLNFIAPGGSQHGPFTGIACGKSMMSSVSLMGGRGGVPLYDRNHVTGASSSSSSSTKATLYPPILNPPPSPATDPSLYNMDMFYSSNIPATVRPYRPYIIRGMAPPTTPCSTDVCDSDYSASRWKASKYYLDLNSDSDPYPPPPTPHSQYLSAEDSCPPSPATERSYFHLFPPPPSPCTDSS
notes: Yeast two-hybrid bait; also called cytoplasmic domain of Zmax1 (LRP5); cytoplasmic domain of LRP5
